Source: US20170121382A1 (NORTHWESTERN UNIVERSITY, published 2017)

Molecular target: T1, PHEX (phosphate-regulating gene with homology to endopeptidase on the X chromosome), endogenous mouse protein (mouse, UniProt P70669 1-749)
T1 construct: Endogenous PHEX of mouse bone extracts (coIP); The same id stands for the endogenous PHEX of mouse MC3T3-E1 cells and of mice in the functional rows; also called bone metallo-endopeptidase PHEX
T1 sequence (looked up): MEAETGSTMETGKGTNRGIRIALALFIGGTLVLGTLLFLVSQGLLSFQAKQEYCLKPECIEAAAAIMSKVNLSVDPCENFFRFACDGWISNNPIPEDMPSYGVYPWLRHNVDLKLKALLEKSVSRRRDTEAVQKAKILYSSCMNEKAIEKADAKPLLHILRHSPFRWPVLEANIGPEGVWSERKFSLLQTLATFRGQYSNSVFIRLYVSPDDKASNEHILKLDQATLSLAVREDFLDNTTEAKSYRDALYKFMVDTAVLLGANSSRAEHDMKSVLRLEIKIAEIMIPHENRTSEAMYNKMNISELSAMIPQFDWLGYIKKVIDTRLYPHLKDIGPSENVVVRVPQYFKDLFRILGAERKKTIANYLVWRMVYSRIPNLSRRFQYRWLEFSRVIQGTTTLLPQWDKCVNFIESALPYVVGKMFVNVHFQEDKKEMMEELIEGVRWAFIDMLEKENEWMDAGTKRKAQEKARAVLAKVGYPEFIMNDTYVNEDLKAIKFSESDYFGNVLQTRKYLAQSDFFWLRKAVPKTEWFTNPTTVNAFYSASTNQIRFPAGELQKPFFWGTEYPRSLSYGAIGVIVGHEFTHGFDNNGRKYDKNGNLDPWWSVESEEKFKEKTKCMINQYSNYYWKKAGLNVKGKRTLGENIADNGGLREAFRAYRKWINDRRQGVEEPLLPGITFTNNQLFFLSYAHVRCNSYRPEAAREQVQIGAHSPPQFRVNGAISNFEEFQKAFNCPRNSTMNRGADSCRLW
Assay: coIP, anti-PHEX antibody-coated beads, mouse bone extracts, Western blot for DMP1
Method: FIGS. 4A-C. (FIG. 4A) PHEX binds to full length DMP1 and cDMP1. Bone protein extracts from WT and DMP1ko/cDMP1Tg were incubated with anti-PHEX antibody-coated beads. […] Negative control ((−) CTR) was obtained from uncoated beads to evaluate non-specific binding. […] The constant of dissociation (KD) between PHEX and the entire DMP1 protein reflecting binding affinity is as strong as the KD obtained previously between rPHEX and the small 19 amino acid MEPE-ASARM peptide. Data are normalized by non-specific binding at baseline and expressed as relative units (RU) of response difference. (FIG. 4C) Dose-dependent binding of rPHEX to rDMP1, represented by quantitation of the SPR sensorgram, confirms binding specificity.
Both PHEX and DMP1 are expressed by osteocytes. The ASARM sequence binds to PHEX. Co-immunoprecipitation (coIP) of PHEX and DMP1 were performed in endogenous bone protein extracts to test the presence of binding between PHEX and cDMP1. Magnetic beads were covalently coated with a PHEX antibody (Ab) and incubated with protein extracts isolated from WT or DMP1ko/cDMP1Tg mice. Detection of DMP1 in the protein pull-downs eluted from the beads was performed by Western Blot analysis using an Ab targeting the C-terminus region (FIG. 4A). […] In the DMP1ko/cDMP1Tg extracts in which full-length DMP1 is not expressed, only cDMP1 fragments were detected. […]

B1: full-length DMP1 (dentin matrix protein 1), endogenous mouse protein, ~100 kDa (other, UniProt O55188 17-503, looked up)
chain: LPVARYHNTESESSEERTGDLAGSPPPPTNSESSEESQASPEGQANSDHTDSSESGEELGYDRGQYRPAGGLSKSTGTGADKEDDEDDSGDDTFGDEDNDLGPEEGQWGGPSKLDSDEDSTDTTQSSEDSTSQENSAQDTPSDSKDHDSEDEADSRPEAGDSTQDSESEEQRVGGGSEGESSHGDGSEFDDEGMQSDDPESTRSDRGHARMSSAGIRSEESKGDHEPTSTQDSDDSQSVEFSSRKSFRRSHVSEEDYRGELTDSNSRETQSDSTEDTASKEESRSESQEDTAESQSQEDSPEGQDPSSESSEEAGEPSQESSSESQEGVTSESRGDNPDNTSQAGDQEDSESSEEDSLNTFSSSESQSTEEQADSESNESLSLSEESQESAQDGDSSSQEGLQSQSASTESRSQESQSEQDSRSEEDSDSQDSSRSKEESNSTGSASSSEEDIRPKNMEADSRKLIVDAYHNKPIGDQDDNDCQDGY
- binding result: binds
